The target of test [1] is soluble FcγRIIB (human) (UniProt P31994). Nature of the test: ELISA.
For test [2], the target named is soluble monomeric FcγRIIIA-linker-AVITAG (human) (UniProt P08637). Put plainly: ELISA. (An ELISA detects its analyte on a solid surface through an enzyme-linked reagent.)

For the substance ch4-4-20 "term is M, P396L" (antibody), the fold increase vs wt in test [1] came to 7.2 x; in test [2] it was 1.9 x.
For ch4-4-20 K334E, E380D (antibody), the fold increase vs wt in test [1] was determined as 4.5 x; in test [2] it was 1.5 x.
For ch4-4-20 V215I, K290V, P396L (antibody), the fold increase vs wt in test [1] was 4.6 x; in test [2], 2.2 x.
The like results for ch4-4-20 K246T, P396H (antibody) were, in that order, 2.5 x and 1 x.
In the same order, the values of ch4-4-20 P247S, P396L (antibody) are 4.2 x and 1.2 x.
Consider “ch4-4-20 K222N, T335N, K370E, A378V, T394M (antibody)”, for which the values for the fold increase vs wt in test [1] and in test [2] were 7 x and 1 x, respectively.
For ch4-4-20 N315I, V379M, T394M (antibody), in test [1], the fold increase vs wt was 9 x and the fold vs wt came out at 9 X. Also, in test [2], the fold increase vs wt stood at 1 x and the fold vs wt came out at 1 X.
For the substance ch4-4-20 P247L, I253N, K334N (antibody), the fold increase vs wt came out at 2.5 x in test [1] and 3 x in test [2].
Take ch4-4-20 P291S, P353Q (antibody): the fold decrease vs wt amounted to 0.25 x in test [1] and 0.5 x in test [2].
As to ch4-4-20 Q419L, P396L (antibody), the values for the fold increase vs wt in test [1] and in test [2] were 6.1 x and 2.2 x, respectively.
As to “ch4-4-20 P244H, L358M, V379M, N384K, V397M (antibody)”, the fold increase vs wt in test [1] amounted to 1.5 x; in test [2], 1.75 x.
Consider ch4-4-20 S400F, P396L (antibody), for which the figures for the fold increase vs wt in test [1] and in test [2] were 4.7 x and 1.5 x, respectively.
For the substance ch4-4-20 T225S (antibody), the fold decrease vs wt is 0.5 x in test [1] and 0.25 x in test [2].
Consider ch4-4-20 H268D, P396L (antibody), for which the fold increase vs wt is 13.7 x in test [1] and 3.8 x in test [2].
On to ch4-4-20 K290T, N390I, P396L (antibody), for which the fold increase vs wt in test [1] was 6.1 x; in test [2], 2.8 x.
Consider “ch4-4-20 K210N, K222I, K320M, P396L (antibody)”, for which the fold increase vs wt in test [1] is 8.7 x; in test [2], 2.7 x.
Turning to “ch4-4-20 K290E, V369A, T393A, P396L (antibody)”, the fold increase vs wt came to 6.7 x in test [1] and 1.3 x in test [2].
Consider ch4-4-20 A231V, Q386H, V412M (antibody), for which the results for the fold increase vs wt in test [1] and in test [2] were 6 x and 1.5 x, respectively.
Turning to ch4-4-20 P244H, P396L (antibody), the values for the fold increase vs wt in test [1] and in test [2] were 4 x and 2.5 x, respectively.
For the substance ch4-4-20 S415I, L251F (antibody), the fold increase vs wt in test [1] is 0.75 x; in test [2], 0.5 x.
Regarding “ch4-4-20 P217S, V305I, I309L, N390H, P396L (antibody)”, the fold increase vs wt in test [1] was found to be 7 x; in test [2] it was 2 x.
Turning to ch4-4-20 G385E, P247H (antibody), the fold increase vs wt amounted to 0.75 x in test [1] and 1 x in test [2].
With ch4-4-20 S400P (antibody), the fold increase vs wt came out at 6 x in test [1] and 1 x in test [2].
ch4-4-20 K317N, F423-deleted (antibody): the fold increase vs wt in test [1] is 7 x; in test [2], 2.5 x.
The like results for ch4-4-20 P217A, T359A, P396L (antibody) were, in that order, 4.8 x and 1.5 x.
In the case of ch4-4-20 I377F (antibody), the fold increase vs wt is 0.5 x in test [1] and 1.5 x in test [2].
Turning to ch4-4-20 T223I, T256S, L406F (antibody), the fold increase vs wt in test [1] is 6 x; in test [2] it was 0.25 x.
Take ch4-4-20 S408I, V215I, V125L (antibody): the results for the fold increase vs wt in test [1] and in test [2] were 0.75 x and 0.5 x, respectively.
As for ch4-4-20 N384K, P396L (antibody), the figures for the fold increase vs wt in test [1] and in test [2] were 5.2 x and 2.2 x, respectively.
On to ch4-4-20 S298N, S407R (antibody), for which the fold increase vs wt in test [1] is 7 x; in test [2], 0.5 x.
ch4-4-20 P217S, A378V, S408R (antibody): the fold increase vs wt in test [1] stood at 4.5 x; in test [2], 2 x.
“ch4-4-20 D221Y, M252I, A330G, A339T, T359N, V422I, H433L (antibody)”: the fold increase vs wt came to 6 x in test [1] and 2.5 x in test [2].
In the case of ch4-4-20 R301H, K340E, D399E (antibody), the values for the fold decrease vs wt in test [1] and in test [2] were 0.25 x and 0.5 x, respectively.
Regarding “ch4-4-20 F275L, Q362H, N384K, P396L (antibody)”, the fold increase vs wt came out at 3.7 x in test [1] and 2.2 x in test [2].
Take “ch4-4-20 V348M, K334N, F275I, Y202M, K147T (antibody)”: the fold increase vs wt turned out to be 0.75 x in test [1] and 0.5 x in test [2].
On to “ch4-4-20 F243L, V305I, A378D, F404S, P396L (antibody)”, for which the fold increase vs wt is 5.4 x in test [1] and 1.6 x in test [2].
For the substance ch4-4-20 S375C, P396L (antibody), the fold increase vs wt in test [1] turned out to be 4.5 x; in test [2], 1.5 x.
The like results for ch4-4-20 K246N, Q419R, P396L (antibody) were, in that order, 4.8 x and 1.1 x.
In the same order, the values of ch4-4-20 K370E, P396L (antibody) are 6.6 x and 2 x.
Take ch4-4-20 L242F, P396L (antibody): the fold increase vs wt was 4.1 x in test [1] and 2.5 x in test [2].
ch4-4-20 T250S, P396L (antibody): the fold increase vs wt in test [1] worked out at 6.8 x; in test [2] it was 1.5 x.
Consider ch4-4-20 K326I, P396L (antibody), for which the fold increase vs wt in test [1] is 5.9 x; in test [2], 2.9 x.
As to ch4-4-20 F241L, E258G (antibody), the fold increase vs wt is 2.5 x in test [1] and 2 x in test [2].
Consider ch4-4-20 K290T, G371D (antibody), for which the figures for the fold increase vs wt in test [1] and in test [2] were 6 x and 0.25 x, respectively.
With ch4-4-20 P227S, K290E (antibody), the results for the fold increase vs wt in test [1] and in test [2] were 0.5 x and 1 x, respectively.
With ch4-4-20 V282E, V369I, L406F (antibody), the fold increase vs wt in test [1] amounted to 7 x; in test [2], 0.5 x.
In the same order, the values of ch4-4-20 L410H, P396L (antibody) are 4.5 x and 1.7 x.
“ch4-4-20 V273I, K326E, L328I, P396L (antibody)”: the fold increase vs wt in test [1] is 10.8 x; in test [2], 1.3 x.
For the substance “ch4-4-20 T215P, K274N, A287G, K334N, L365V, P396L (antibody)”, the fold increase vs wt in test [1] was 4 x; in test [2], 2 x.
Turning to ch4-4-20 Q419H, P396L (antibody), the fold increase vs wt in test [1] was 6.9 x; in test [2], 2 x.

The values are drawn from US20060134709A1.
